Data reported in patent US20240058447A1 (INSTIL BIO UK, published 2024).

How the values were obtained:
[1] = target: membrane-bound FRα on target cells (UniProt P15328); test: cell-based or functional assay
[2] = target: CD3 of the TCR/CD3 complex on T cells (human) (UniProt P07766); test: cell-based or functional assay
[3] = target: T1, human histidine-tagged FRα (human, UniProt P15328 25-234); test: surface plasmon resonance (printed 'Surface plasma resonance'); orientation not stated; FIG. 54 names human histidine-tagged FRα
T1 construct: also called folate receptor α; FOLR1; not shown: histidine tag
T1 sequence (P15328 25-234 limits assumed): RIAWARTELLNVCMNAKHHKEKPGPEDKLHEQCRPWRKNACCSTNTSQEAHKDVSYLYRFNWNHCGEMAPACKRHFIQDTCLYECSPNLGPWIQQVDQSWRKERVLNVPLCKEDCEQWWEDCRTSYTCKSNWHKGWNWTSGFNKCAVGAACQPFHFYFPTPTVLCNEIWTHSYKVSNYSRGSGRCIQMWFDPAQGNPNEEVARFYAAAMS

Sequence of membrane-bound FRα on target cells (P15328 25-234 limits assumed): as above
Sequence of CD3 of the TCR/CD3 complex on T cells (human) (P07766 23-207, one chain of several): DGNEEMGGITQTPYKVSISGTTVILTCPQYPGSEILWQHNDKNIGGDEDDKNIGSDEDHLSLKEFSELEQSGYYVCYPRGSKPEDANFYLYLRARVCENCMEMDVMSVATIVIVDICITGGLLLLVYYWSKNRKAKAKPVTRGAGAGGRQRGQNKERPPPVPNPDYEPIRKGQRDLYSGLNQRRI

Molecule: anti-FRα CoStAR (MOV19 scFv - CD28 - CD40 costimulatory antigen receptor) on T cells or TILs
- IFNγ production of lung TIL against Ba/F3.OKT3.FRα, CoStAR-Td versus non-Td [1]: 4 fold
- IFNγ production of lung TIL against autologous tumor digest, E:T 1:1, CoStAR-Td versus non-Td [1]: 6.4 fold
- IFNγ production of ovarian TIL against Ba/F3.OKT3.FRα, CoStAR-Td versus non-Td [1]: 4.2 fold
- IFNγ production of ovarian TIL against autologous tumor digest, E:T 1:1, CoStAR-Td versus non-Td [1]: 4.3 fold
- IFNγ production of renal TIL against Ba/F3.OKT3.FRα, CoStAR-Td versus non-Td [1]: 3.1 fold
- IFNγ production of renal TIL against autologous tumor digest, E:T 1:1, CoStAR-Td versus non-Td [1]: 2.4 fold
- IL-2 production of lung TIL against Ba/F3.OKT3.FRα, CoStAR-Td versus non-Td [1]: 18.3 fold
- IL-2 production of ovarian TIL against Ba/F3.OKT3.FRα, CoStAR-Td versus non-Td [1]: 19.9 fold
- IL-2 production of renal TIL against Ba/F3.OKT3.FRα, CoStAR-Td versus non-Td [1]: 15 fold
- fold expansion after a single stimulation with Ba/F3.OKT3.FRα, no exogenous IL-2, day 7 [1]: 6.7 fold
- fold expansion after repeated stimulation with Ba/F3.OKT3.FRα (days 0, 7, 14, 21), no exogenous IL-2, day 35 [1]: 829 fold
- fold expansion of T cells cocultured with Ba/F3.OKT3.FRα, E:T 8:1, 200 IU/mL IL-2, day 35 [1]: 198 fold
- xCELLigence cytotoxicity against H508.Luc.Puro.FRα, AUC of normalized cell index over 48 h, E:T 10:1, donor 37636 TCR.CoStAR-Td T cells [1]: 91.2 AUC

Molecule: membrane-anchored OKT3 on target cells (scFv)
- cytotoxicity against Ba/F3.OKT3 at E:T 1:5 after 5 days, CoStAR transduced T cells [2]: 82%
- cytotoxicity against Ba/F3.OKT3 at E:T 1:5 after 5 days, non-transduced T cells [2]: 74%

B1: MOV19 monoclonal antibody (antibody, V domains shown)
VH: QVQLQQSGAELVKPGASVKISCKASGYSFTGYFMNWVKQSHGKSLEWIGRIHPYDGDTFYNQNFKDKATLTVDKSSNTAHMELLSLTSEDFAVYYCTRYDGSRAMDYWGQGTTVTVSS
VL: DIELTQSPASLAVSLGQRAIISCKASQSVSFAGTSLMHWYHQKPGQQPKLLIYRASNLEAGVPTRFSGSGSKTDFTLNIHPVEEEDAATYYCQQSREYPYTFGGGTKLEIK
notes: also called MOV19 antibody; MOV19 anti-FRα antibody
- Kd [3]: ~0.46 nM
